The numbers were not newly measured in US5576301A, “Low molecular growth potentiating peptides” (The Penn State Research Foundation, priority 1994, dated 1996), which cites them from elsewhere.

Data set [1] concerns tibial growth plate of hypophysectomized rats. Conditions: hormone standard.
The conditions of data set [2]: comparison values.
A further data set relates to patients. Conditions: patients treated with recombinant hGH.

Take “Kabi hGH standard: human growth hormone standard obtained from Kabi Vitrum, Sweden”: the “potency of GH standard preparation” value in data set [1] is 3.0 IU/mg protein.

For “human monomeric growth hormone: monomeric 22K human growth hormone”, in data set [2], the pI is listed as 5.1-5.6.

In the case of “recombinant form of hGH: recombinant human growth hormone used in the United States to treat patients”, in the data set on patients, the “patients treated that develop circulating antibodies” value is 20~30%.

B1: USDA bovine GH preparation: bovine growth hormone standard used in the tibial line bioassay (protein, UniProt P01246 27-217, looked up)
Somatotropin: AFPAMSLSGLFANAVLRAQHLHQLAADTFKEFERTYIPEGQRYSIQNTQVAFCFSETIPAPTGKNEAQQKSDLELLRISLLLIQSWLGPLQFLSRVFTNSLVFGTSDRVYEKLKDLEEGILALMRELEDGTPRAGQILKQTYDKFDTNMRSDDALLKNYGLLSCFRKDLHKTETYLRVMKCRRFGEASCAF
Consider B1, for which, in data set [1], the “potency of GH standard preparation” value is reported as 1.4 IU/mg protein.
